One block for each substance: values may come before it.
How the values were obtained:
[1] = target: Mcm2-7 helicase labeled at the N terminus of Mcm6 with DyLight 650 (Mcm2-7^6N-650), used as Mcm2-7-Cdt1 (S. cerevisiae) (UniProt P29469); test: FRET or BRET; single-molecule FRET with colocalisation (CoSMoS), Orc6-tether assay: donor DyLight 550 on Orc6 of ORC, acceptor DyLight 650 at the N terminus of Mcm6 of Mcm2-7; origin DNA attached to the slide; 0.5 to 1 nM ORC, 3 to 10 nM Cdc6, 10 to 15 nM Mcm2-7-Cdt1; 25 mM HEPES-KOH pH 7.6, 300 mM potassium glutamate, 5 mM Mg(OAc)2, 3 mM ATP; only events with ORC and Mcm2-7 both on DNA for at least five frames; the high E_FRET state is read as the Orc6N-Mcm2-7N (tether) interaction
[2] = target: Mcm2-7^6N-650 in complex with Cdt1 labeled with DyLight 650 (Mcm2-7^6N-650-Cdt1^C-650) (S. cerevisiae) (UniProt P29469)
[3] = target: Mcm2-7^6N-650 in complex with Cdt1 labeled with DyLight 650 (Mcm2-7^6N-650-Cdt1^C-650) (S. cerevisiae) (UniProt P29469); remark: listed apart in the source
[4] = target: Mcm2-7^6N-650 in complex with Cdt1 labeled with DyLight 650 (Mcm2-7^6N-650-Cdt1^C-650) (S. cerevisiae) (UniProt P29469); remark: listed apart in the source
[5] = target: Mcm2-7^6N-650 in complex with Cdt1 labeled with DyLight 650 (Mcm2-7^6N-650-Cdt1^C-650) (S. cerevisiae) (UniProt P29469); test: FRET or BRET; single-molecule FRET with colocalisation (CoSMoS), Orc6-tether assay: donor DyLight 550 on Orc6 of ORC, acceptor DyLight 650 at the N terminus of Mcm6 of Mcm2-7; origin DNA attached to the slide; 0.5 to 1 nM ORC, 3 to 10 nM Cdc6, 10 to 15 nM Mcm2-7-Cdt1; 25 mM HEPES-KOH pH 7.6, 300 mM potassium glutamate, 5 mM Mg(OAc)2, 3 mM ATP; only events with ORC and Mcm2-7 both on DNA for at least five frames; the high E_FRET state is read as the Orc6N-Mcm2-7N (tether) interaction

Substance: ORC that lacks Orc6N and has the Orc6 lnk1 region scrambled, labeled with DyLight 550 (ORC^6ΔN-lnk1scr-550) (from UniProt P54784 1-914; P32833 1-620; P54790 1-616; P54791 1-529; P50874 1-479; P38826 1-435) (complex)
- ORC molecules released within 7.8 s (three frames) after Cdt1 release [2]: 83%
- ORC molecules retained for more than 100 s on DNA after Cdt1 release (of 106 molecules) [2]: 0
- percent of stably recruited Mcm2-7 that reached the high E FRET (tether) state [1]: 4.4%

Substance: ORC with the Orc6 lnk1 region (aa 120 to 185) scrambled, labeled with DyLight 550 (ORC^6-lnk1scr-550) (from UniProt P54784 1-914; P32833 1-620; P54790 1-616; P54791 1-529; P50874 1-479; P38826 1-435) (complex)
- ORC molecules released after 7.8 s after Cdt1 release [2]: 63%
- ORC molecules retained for longer than 100 s after Cdt1 release [2]: 13%
- median lifetime of the tether interaction [1]: 9.7 s
- median time to form the tether interaction, fold of WT ORC [1]: 2 fold

Substance: origin recognition complex labeled at the Orc6 N-terminal region with DyLight 550 (ORC^6N-550), P54784 1-914; P32833 1-620; P54790 1-616; P54791 1-529; P50874 1-479; P38826 1-435
- ORC molecules released within 7.8 s (three frames) after Cdt1 release [2]: 39%
- ORC molecules retained for more than 100 s on DNA after Cdt1 release [2]: 24%
- median time of ORC retention after Cdt1 release, Orc6 tether interaction absent at the time of Cdt1 release [3]: 3.8 s
- median time of ORC retention after Cdt1 release, Orc6 tether interaction present at the time of Cdt1 release [3]: 23.8 s
- ORC molecules released within one video frame (~2.6 s) after Cdt1 release, tether interaction present as Cdt1 was released [4]: 25%
- ORC molecules released within one video frame (~2.6 s) after Cdt1 release, tether not present as Cdt1 is released (of 33 molecules) [4]: 16
- median duration of the Orc6N-Mcm2-7N interaction [1]: 26.4 s
- median time to form the high E FRET state after Mcm2-7-Cdt1 recruitment [1]: 7.2 s
- percent of stably recruited Mcm2-7 that reached the high E FRET (tether) state [1]: 91.5%
- recruitment events in which a high E FRET (tether) state formed (of 162 events) [5]: 152

Next, values leading:

- lifetime of the tether interaction, fold shorter than unphosphorylated ORC [1]: 2.5 fold
- median time of tether formation, fold of unphosphorylated ORC [1]: > 2 fold
- percent of recruited Mcm2-7 that exhibited a stable high E FRET (tether) state [1]: 53.9%
Substance: CDK-phosphorylated ORC^6N-550 (Orc2 and Orc6 phosphorylated), P54784 1-914; P32833 1-620; P54790 1-616; P54791 1-529; P50874 1-479; P38826 1-435

- ORC molecules released within 7.8 s (three frames) after Cdt1 release [2]: 80%
- ORC molecules retained for more than 100 s on DNA after Cdt1 release (of 106 molecules) [2]: 1
- percent of stably recruited Mcm2-7 that reached the high E FRET (tether) state [1]: 82.3%
Substance: ORC that lacks the Orc6 N-terminal domain, labeled with DyLight 550 (ORC^6ΔN-550) (from UniProt P54784 1-914; P32833 1-620; P54790 1-616; P54791 1-529; P50874 1-479; P38826 1-435) (complex)

Reference: PMC12541460
